Experimental data taken from US20150246947A1 (BAXALTA, published 2015).
Read-outs that look alike come from different tables or passages of the source. Non-standard residues stand in square brackets, D forms with d. 400Mal‑PEG = 40 kD PEG moiety attached via maleimide; Cys(Me-400MA) = not defined here

Assays:
human Protein S [1] = biological target: T1, human Protein S (UniProt P07225 42-676); test: LANCE competition
T1 chain: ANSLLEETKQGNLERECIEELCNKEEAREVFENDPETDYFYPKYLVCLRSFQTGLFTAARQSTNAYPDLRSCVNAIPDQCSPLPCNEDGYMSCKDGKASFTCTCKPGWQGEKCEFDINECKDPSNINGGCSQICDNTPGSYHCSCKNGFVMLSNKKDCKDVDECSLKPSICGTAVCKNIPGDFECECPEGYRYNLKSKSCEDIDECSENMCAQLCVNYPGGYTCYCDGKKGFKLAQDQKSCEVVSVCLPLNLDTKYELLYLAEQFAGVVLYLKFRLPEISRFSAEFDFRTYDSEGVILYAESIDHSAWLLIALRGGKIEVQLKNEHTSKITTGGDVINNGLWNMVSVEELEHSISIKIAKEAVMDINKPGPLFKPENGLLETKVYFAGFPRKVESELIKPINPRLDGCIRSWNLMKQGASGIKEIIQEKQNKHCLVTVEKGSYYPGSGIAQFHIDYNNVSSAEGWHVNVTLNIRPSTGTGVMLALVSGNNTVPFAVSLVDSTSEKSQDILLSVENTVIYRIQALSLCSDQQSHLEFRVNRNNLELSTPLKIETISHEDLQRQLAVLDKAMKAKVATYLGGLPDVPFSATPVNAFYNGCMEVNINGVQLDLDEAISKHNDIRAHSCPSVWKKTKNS
In short: (§1)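 A homogeneous time-resolved FRET (LANCE) competition format paired europium-labelled Protein S and ULight-labelled streptavidin with a biotinylated tracer peptide, against which unlabelled test peptide was titrated three-fold. With final concentrations of 10 nM Protein S, 100 nM streptavidin and 300 nM tracer in 50 µl, or 2 nM Protein S and 60 nM tracer when a Tecan F500 was used, samples stood 1 hour at room temperature. Emission was read at 665 nm with excitation at 340 nm. Non-linear regression of these signals gave the IC50.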

human Protein S [2] = biological target: T2, human Protein S (human, UniProt P07225 42-676); test: cell-based or functional assay
T2 sequence: T1 chain

human Protein S [3] = biological target: T2, human Protein S; test: Biacore (SPR), Protein S immobilized
In short: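 Kd was derived from kon and koff, which came from fitting surface plasmon resonance sensorgrams to a Langmuir binding model. Measurements used a Biacore 3000 or Biacore T200 with 1000 RU of human full-length Protein S on a […] chip, and peptides were injected at various concentrations in HBS-buffer with 3 mM CaCl₂ and 1% DMSO.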

human GAS6 = biological target: T3, human GAS6 (human, UniProt Q14393 49-678, limits assumed); test: method not restated (Biacore in Example 3)
T3 construct: Immobilized on the Biacore chip; also called protein encoded by the Growth Arrest Specific-6 gene; anti-target
T3 sequence (looked up): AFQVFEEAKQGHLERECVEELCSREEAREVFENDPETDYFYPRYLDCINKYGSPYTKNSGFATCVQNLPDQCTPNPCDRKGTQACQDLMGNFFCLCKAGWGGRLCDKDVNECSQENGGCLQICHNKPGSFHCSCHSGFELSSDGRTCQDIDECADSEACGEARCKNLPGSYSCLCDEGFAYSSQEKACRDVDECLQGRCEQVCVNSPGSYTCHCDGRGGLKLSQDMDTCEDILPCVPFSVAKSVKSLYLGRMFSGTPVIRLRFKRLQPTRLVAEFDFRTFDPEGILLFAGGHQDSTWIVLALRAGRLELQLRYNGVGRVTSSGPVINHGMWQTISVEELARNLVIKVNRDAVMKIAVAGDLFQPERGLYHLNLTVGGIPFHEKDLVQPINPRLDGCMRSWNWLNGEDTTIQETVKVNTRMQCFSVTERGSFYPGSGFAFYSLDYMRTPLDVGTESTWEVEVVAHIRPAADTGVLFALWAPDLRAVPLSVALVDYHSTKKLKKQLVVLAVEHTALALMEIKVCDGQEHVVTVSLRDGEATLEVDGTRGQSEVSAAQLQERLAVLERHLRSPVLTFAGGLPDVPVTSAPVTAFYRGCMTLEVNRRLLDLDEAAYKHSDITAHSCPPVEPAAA
In short: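 Binding to the anti-target human GAS6 was tested by surface plasmon resonance (Biacore), with 1000 RU GAS6 immobilized on a […] chip. Peptides were injected at various concentrations in HBS-buffer with 3 mM CaCl₂ and 1% DMSO, and the chip was regenerated with 4 M MgCl₂. Kinetic fitting of the GAS6 signals was error prone, so sensorgrams were reviewed visually to estimate anti-target binding.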

human Protein S [4] = biological target: T1, human Protein S; test: LANCE competition
In short: as §1

human Protein S [5] = biological target: T2, human Protein S; test: LANCE TR-FRET; peptide added to preformed C4BP/Protein S complex; competitor C4BP
Experimental: To investigate the effect of the peptides described herein on PS/C4BP complexes, a LANCE IC50 assay was established using methods similar to those described above. JBS2572 or JBS3216 was added to a preformed C4BP/PS complex. Changes in the complex concentration were followed by recording the TR-FRET signal. For both peptides, a time- and concentration-dependent dissociation of the C4BP/PS complex was observed. […] The time-dependency of the complex reduction was similar for both peptides. After two hours of incubation in the presence of 100 nM JBS2572 or JBS3216, the C4BP/PS complex was reduced to 60% and 50%, respectively. In addition, binding of biotinylated JBS2572 to Protein S was inhibited by C4BP in the LANCE IC50 assay. Pull-down experiments where JBS2697 was coupled to streptavidin sepharose and incubated for one hour at room temperature with (a) Protein S (1.6 pmol) (b) C4BP (8.5 pmol) and (c) Protein S (1.6 pmol)+C4BP (8.5 pmol) supported the results from the modified LANCE IC50 assay. JBS2697 interacted with free Protein S only from experiment (a) with Protein S alone and from experiment (c) with the C4BP-Protein S mixture.

B1: JBS3179 (peptide)
peptide: Ac-TGLVSAGWYDYNFDHYREFTC-NH2
modifications: not fully specified (residue 21); also: tetramer: four peptides on a 40 kD four-arm PEG core
IC50 (human Protein S [1]): 8 nM | CAT EC50 (human Protein S [2]): 6 nM | CAT EC50, plasmas from three individuals with severe hemophilia A (human Protein S [2]): < 100 nM | Kd (human Protein S [3]): 0.4 nM | koff (human Protein S [3]): 0.000179 s⁻¹ | kon (human Protein S [3]): 410000 M⁻¹ s⁻¹ | binding result (human GAS6): no binding (tested: 1 µM)

B2: JBS3318 (peptide)
peptide: Ac-EYYVSAGWYDYNTDTYYEFEC(400Mal‑PEG)-NH2
notes: JBS3319 conjugated to a 40 kD PEG moiety
CAT EC50, plasmas from three individuals with severe hemophilia A (human Protein S [2]): < 100 nM | Kd (human Protein S [3]): 1.4 nM | koff (human Protein S [3]): 0.000213 s⁻¹ | kon (human Protein S [3]): 152000 M⁻¹ s⁻¹ | binding result (human GAS6): no binding (tested: 1 µM) | IC50 (human Protein S [4]): 2.8 nM

Ac-EYYVSAGWYDYNTDTYYEFE-NH2 [JBS3216]
IC50 (human Protein S [1]): 0.7 nM | CAT EC50, human hemophilia A patient plasma (human Protein S [2]): 85 nM | IC50 (human Protein S [5]): 0.3 nM | Kd (human Protein S [3]): 0.2 nM | koff (human Protein S [3]): 0.000233 s⁻¹ | kon (human Protein S [3]): 1.14e+06 M⁻¹ s⁻¹

B3: JBS3322 (peptide)
peptide: Ac-EYIVTAGWYDYNKDIYYEFK[Cys(Me-400MA)]-NH2
modifications: reading uncertain
notes: JBS3206 monomer comprising a 40 kD PEG moiety
CAT EC50, plasmas from three individuals with severe hemophilia A (human Protein S [2]): < 100 nM | Kd (human Protein S [3]): 3.6 nM | koff (human Protein S [3]): 0.000278 s⁻¹ | kon (human Protein S [3]): 78000 M⁻¹ s⁻¹ | binding result (human GAS6): no binding (tested: 1 µM) | IC50 (human Protein S [4]): 4.5 nM
